In publication PMC11059408, “Atypical heat shock transcription factor HSF5 is critical for male meiotic prophase under non-stress conditions” (Nature Communications, 2023):

Tests used:
[1] = molecular target: T1, HSF5 N-terminal protein (HSF5-DBD) (Mus musculus, UniProt Q5ND04 1-209); assay: EMSA; 0.04 pmol probe, protein/DNA molar ratio 15.6-250; three shifted bands; 20 mM Tris-HCl pH 8.0, 100 mM NaCl, 2 mM MgCl2, 10 ul, 25 C, 10 min; 8% polyacrylamide gel in Tris-borate pH 8.3, 2 mM EDTA; conditions: protein: recombinant; tags: His (pET19b, E. coli; Ni-NTA purified); label: 32P (Klenow, [a-32P]dCTP); 5' overhang 3 nt (AGG) on both strands before Klenow labelling
T1 sequence: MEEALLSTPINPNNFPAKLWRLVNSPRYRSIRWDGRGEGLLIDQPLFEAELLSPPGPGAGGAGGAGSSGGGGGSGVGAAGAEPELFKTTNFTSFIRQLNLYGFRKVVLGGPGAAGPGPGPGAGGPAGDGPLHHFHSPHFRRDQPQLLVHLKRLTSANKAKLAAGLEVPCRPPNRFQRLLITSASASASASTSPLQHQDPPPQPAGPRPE

[2] = molecular target: T1, HSF5 N-terminal protein (HSF5-DBD); assay: competition; 1 uM protein, 0.04 pmol labeled T probe, 1-125 fold excess competitor; 20 mM Tris-HCl pH 8.0, 100 mM NaCl, 2 mM MgCl2, 10 ul, 25 C, 10 min; 8% polyacrylamide gel in Tris-borate pH 8.3, 2 mM EDTA; conditions: protein: recombinant; tags: His (pET19b, E. coli; Ni-NTA purified); 5' overhang 3 nt (AGG) on both strands
[3] = molecular target: T1, HSF5 N-terminal protein (HSF5-DBD); assay: EMSA; 0.04 pmol probe, protein/DNA molar ratio 15.6-250; shifts completely abolished; 20 mM Tris-HCl pH 8.0, 100 mM NaCl, 2 mM MgCl2, 10 ul, 25 C, 10 min; 8% polyacrylamide gel in Tris-borate pH 8.3, 2 mM EDTA; conditions: protein: recombinant; tags: His (pET19b, E. coli; Ni-NTA purified); label: 32P (Klenow, [a-32P]dCTP); 5' overhang 3 nt (AGG) on both strands before Klenow labelling
[4] = molecular target: T1, HSF5 N-terminal protein (HSF5-DBD); assay: competition; 1 uM protein, 0.04 pmol labeled T probe, 1-125 fold excess competitor; did not compete; 20 mM Tris-HCl pH 8.0, 100 mM NaCl, 2 mM MgCl2, 10 ul, 25 C, 10 min; 8% polyacrylamide gel in Tris-borate pH 8.3, 2 mM EDTA; conditions: protein: recombinant; tags: His (pET19b, E. coli; Ni-NTA purified); 5' overhang 3 nt (AGG) on both strands
[5] = molecular target: the molecule itself; assay: SEC-MALS; after heat treatment at 42 °C for 30 min; 100 μL of MBP-full length HSF5 (12.6 μM) or HSF5-DBD (26.6 μM) injected; PROTEIN KW-803 column; 25 mM HEPES/KOH pH 7.2, 150 mM KCl

B1: HSF5-EMSA target (T) probe (dsDNA)
DNA 1: AGGGCATAGATATGGAACTCTCTTAGAACTCTCTTAGAACTTACTACTG
DNA 2: AGGCAGTAGTAAGTTCTAAGAGAGTTCTAAGAGAGTTCCATATCTATGC
Does B1 bind [1]?
Result: binds

B2: unlabeled target (T) competitor (dsDNA)
DNA 1: B1 DNA 1
DNA 2: B1 DNA 2
Does B2 bind [2]?
Result: binds

B3: HSF5-EMSA mutant (M) probe (dsDNA)
DNA 1: AGGGCATAGATAACCTTGAGTCTATCTTGAGTCTATCTTGAAACTACTG
DNA 2: AGGCAGTAGTTTCAAGATAGACTCAAGATAGACTCAAGGTTATCTATGC
Does B3 bind [3]?
Result: no binding

B4: unlabeled mutant (M) competitor (dsDNA)
DNA 1: B3 DNA 1
DNA 2: B3 DNA 2
Does B4 bind [4]?
Result: no binding

B5: His-MBP-fused full-length HSF5 protein (natural protein, mouse, UniProt Q5ND04 1-624, looked up)
chain: MEEALLSTPINPNNFPAKLWRLVNSPRYRSIRWDGRGEGLLIDQPLFEAELLSPPGPGAGGAGGAGSSGGGGGSGVGAAGAEPELFKTTNFTSFIRQLNLYGFRKVVLGGPGAAGPGPGPGAGGPAGDGPLHHFHSPHFRRDQPQLLVHLKRLTSANKAKLAAGLEVPCRPPNRFQRLLITSASASASASTSPLQHQDPPPQPAGPRPEQHGPVAVGQFHRSFRRDNLSPYSYVSTSSHNHSAFPLKGLDRTPIPPRTWQNSLGMHPGQVETSPTFSDKGVPFPVLQRFPTEVTYTLQPSATSVHVQQGPQTMVSSSQKYSNYTPSAQYSQAYYPTAVLQCCSPPTHMDALSSCVTPTASSYAHCNYFQNPPMQSSYPVEFLPSNWPCSATDENKKTEVNLEAVFQIVDELHSSPKLEMVKVEPVETQCPSSQANRGQHILPNANSSNPSSTSQASQLEPLTPVGSDITSFVVGTEQAITCSLPQSPEYIYTIHTAQPLENSTMQESATIQQTHVKLKEQLNHNPSPSSVVFVQEGLPFSTPQVDSSIKCQTNPSENILPSEQMGFLISEMGPANKSTKDTGLSTPARYRERRSNSQGKSPDLHLLVDVACKQEHFPKEEELKE
notes: Heat shock transcription factor 5 (HSF5), mouse, full length; A tobacco etch virus protease cleavage site lies between His6-MBP and HSF5; the fusion was not cleaved for SEC-MALS; also called MBP-full length HSF5; His-MBP-full length HSF5; source: pMAL-c6T construct, purified (HisTrap HP, gel filtration on Superdex 200 pg 16/600); not shown: His6, N-terminal, kept; MBP, N-terminal, kept
Does B5 bind [5]?
Result: binds
